Test results: patent publication US20250171536A1 (CSL INNOVATION, published 2025)

T1: Murine CD117, soluble (MuCD117 1-527) (mouse, UniProt P05532 25-527)
T1 construct: Residues as printed
T1 sequence: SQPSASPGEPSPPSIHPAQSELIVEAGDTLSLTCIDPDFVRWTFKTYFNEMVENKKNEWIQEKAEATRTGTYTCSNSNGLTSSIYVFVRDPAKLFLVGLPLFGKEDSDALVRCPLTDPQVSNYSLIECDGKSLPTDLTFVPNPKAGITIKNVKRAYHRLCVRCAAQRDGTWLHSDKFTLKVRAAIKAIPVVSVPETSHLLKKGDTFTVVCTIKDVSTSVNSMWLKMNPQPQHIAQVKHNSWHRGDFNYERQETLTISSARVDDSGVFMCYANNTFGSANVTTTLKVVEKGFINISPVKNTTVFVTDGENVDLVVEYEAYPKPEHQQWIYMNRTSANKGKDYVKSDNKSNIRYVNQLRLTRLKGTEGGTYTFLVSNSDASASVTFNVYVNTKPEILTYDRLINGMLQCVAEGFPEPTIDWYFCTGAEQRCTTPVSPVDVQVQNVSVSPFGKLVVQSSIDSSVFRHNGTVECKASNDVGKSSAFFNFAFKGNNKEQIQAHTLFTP

T2: Cyno CD117, soluble (cynoCD117 1-520) (cynomolgus monkey, UniProt P10721 26-520 (human entry))
T2 construct: Residues as printed
T2 chain: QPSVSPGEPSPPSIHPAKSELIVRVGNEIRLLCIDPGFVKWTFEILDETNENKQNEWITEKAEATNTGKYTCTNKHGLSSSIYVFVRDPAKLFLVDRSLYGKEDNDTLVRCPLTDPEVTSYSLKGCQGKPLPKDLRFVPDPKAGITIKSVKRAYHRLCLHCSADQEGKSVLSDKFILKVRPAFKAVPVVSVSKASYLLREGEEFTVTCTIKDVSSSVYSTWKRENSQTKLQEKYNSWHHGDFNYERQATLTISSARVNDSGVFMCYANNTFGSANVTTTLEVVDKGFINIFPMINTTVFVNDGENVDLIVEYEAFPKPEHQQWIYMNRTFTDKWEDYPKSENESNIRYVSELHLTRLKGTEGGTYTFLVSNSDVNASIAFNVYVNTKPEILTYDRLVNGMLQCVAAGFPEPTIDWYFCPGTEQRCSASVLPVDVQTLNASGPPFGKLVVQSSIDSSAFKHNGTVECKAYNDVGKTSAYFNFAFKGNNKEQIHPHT


What was measured:
[1] = target: Human CD117 (c-kit), cell-surface expressed (human, UniProt P10721 26-976); assay: cell-based or functional assay
Chain of Human CD117 (c-kit), cell-surface expressed (P10721 26-976 limits assumed): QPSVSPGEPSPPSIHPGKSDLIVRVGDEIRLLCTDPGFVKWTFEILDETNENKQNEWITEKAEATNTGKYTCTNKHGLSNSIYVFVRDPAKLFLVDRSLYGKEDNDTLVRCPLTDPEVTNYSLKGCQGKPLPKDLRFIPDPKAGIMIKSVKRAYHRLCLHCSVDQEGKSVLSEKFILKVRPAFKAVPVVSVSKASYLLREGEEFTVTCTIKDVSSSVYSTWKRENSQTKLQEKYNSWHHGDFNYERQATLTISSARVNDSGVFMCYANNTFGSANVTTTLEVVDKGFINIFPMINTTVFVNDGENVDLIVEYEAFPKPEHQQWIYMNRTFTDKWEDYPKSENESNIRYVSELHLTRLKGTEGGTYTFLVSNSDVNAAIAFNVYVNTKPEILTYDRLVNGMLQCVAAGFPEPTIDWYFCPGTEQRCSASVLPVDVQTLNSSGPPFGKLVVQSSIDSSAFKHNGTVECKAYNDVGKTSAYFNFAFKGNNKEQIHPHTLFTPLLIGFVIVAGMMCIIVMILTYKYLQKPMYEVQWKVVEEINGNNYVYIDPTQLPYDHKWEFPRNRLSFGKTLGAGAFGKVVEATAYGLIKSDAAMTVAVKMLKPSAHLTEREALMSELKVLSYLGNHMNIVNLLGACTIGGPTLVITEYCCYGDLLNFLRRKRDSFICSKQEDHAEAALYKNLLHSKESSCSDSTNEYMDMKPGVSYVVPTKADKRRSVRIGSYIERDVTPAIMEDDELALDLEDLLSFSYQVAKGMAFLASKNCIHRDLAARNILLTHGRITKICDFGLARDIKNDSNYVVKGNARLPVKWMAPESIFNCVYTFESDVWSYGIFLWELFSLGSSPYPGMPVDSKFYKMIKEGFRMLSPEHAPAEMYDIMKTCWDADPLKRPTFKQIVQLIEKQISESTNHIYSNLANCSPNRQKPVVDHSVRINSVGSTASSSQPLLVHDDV

[2] = target: T3, Soluble 8xHis-tagged N-terminal fragment of human CD117 (HuCD117 1-307) (human, UniProt P10721 26-307); assay: SPR Biacore 4000, antibody captured on protein G, His-tagged fragment analyte, 1:1 fit, N=1
T3 construct: This range counts from the precursor start, so a signal peptide is probably cleaved in the secreted protein; also called N-terminal domain; soluble N-terminal; not shown: 8xHis tag
T3 sequence (P10721 26-307): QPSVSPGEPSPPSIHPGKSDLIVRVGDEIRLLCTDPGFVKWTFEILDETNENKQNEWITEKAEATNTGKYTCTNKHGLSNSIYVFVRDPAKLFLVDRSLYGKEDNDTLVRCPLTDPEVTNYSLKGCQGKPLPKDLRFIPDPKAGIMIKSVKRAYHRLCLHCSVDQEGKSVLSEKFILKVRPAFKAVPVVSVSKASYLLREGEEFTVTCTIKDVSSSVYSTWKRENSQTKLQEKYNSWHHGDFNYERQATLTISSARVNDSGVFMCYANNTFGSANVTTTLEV

[3] = target: T4, Soluble 8xHis-tagged C-terminal fragment of human CD117 (HuCD117 308-524) (human, UniProt P10721 308-524); assay: SPR (Biacore 4000), IgG4 antibody captured on protein G, soluble His-tagged fragment injected at 25, 75, 225 nM
T4 construct: C-terminal part of the extracellular region; also called C-terminal domain; not shown: 8xHis tag
T4 sequence (P10721 308-524): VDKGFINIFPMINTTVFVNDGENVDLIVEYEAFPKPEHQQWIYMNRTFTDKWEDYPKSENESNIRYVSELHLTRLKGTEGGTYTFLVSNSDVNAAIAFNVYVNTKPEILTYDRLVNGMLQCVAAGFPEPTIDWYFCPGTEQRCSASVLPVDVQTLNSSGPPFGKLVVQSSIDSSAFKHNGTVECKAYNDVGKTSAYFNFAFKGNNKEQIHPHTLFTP

[4] = target: T1, Murine CD117, soluble (MuCD117 1-527); assay: SPR, captured antibody, soluble CD117 analyte
Protocol: (§1) Biacore 4000 was used for all binding analyses. Experiments were performed at pH 7.3, 37° C. and under flow rate of 30 μL/min. Human anti-CD117 antibodies were surface captured using either polyclonal goat anti-human IgG or IgA antibodies directly immobilised onto the carboxymethyl dextran surface of CM5 sensorchips to approximately 13,000 RU using standard NHS/EDC chemistry at pH 5. The immobilised antibody surface was pre-conditioned with ten injections of human polyclonal IgG (Privigen 60s, 10 μg/mL) each followed by a regeneration cycle with 100 mM H3PO4.
(§2) A total of 18 anti-CD117 antibodies (2 μg/mL) were tested as captured ligands against four soluble mammalian CD117 receptor variants: the N-terminal domain of human CD117 (HuCD1₁₇₁₋₃₀₈), full length human CD117 (HuCD1₁₇₁₋₅₂₄), cyno CD117 (cynoCD117₁₋₅₂₀), and murine CD117 (MuCD117₁₋₅₂₇).
(§3) CD117 proteins were prepared in two-fold dilutions ranging from 0.8 to 200 nM. Anti-CD117 antibodies huAb249, huAb85, huCK6 and huhzSR1 were used as positive controls. BM4 was prepared in an IgG and IgA2 format and used as negative control. Binding affinities were calculated from sensorgrams double-referenced using reference surface and blank buffer injection data gathered within each experiment.

[5] = target: N-terminal domain of human CD117, soluble (HuCD117 1-308) (human, UniProt P10721 26-308); assay: SPR Biacore 4000, captured antibody, soluble CD117 analyte, 1:1 fit;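 note: antibodies captured on CM5 chips via goat anti-human IgG or IgA, CD117 analyte in two-fold series 0.8–200 nM, run at pH 7.3 and 37 °C, double-referenced sensorgrams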
Chain of N-terminal domain of human CD117, soluble (HuCD117 1-308) (P10721 26-308): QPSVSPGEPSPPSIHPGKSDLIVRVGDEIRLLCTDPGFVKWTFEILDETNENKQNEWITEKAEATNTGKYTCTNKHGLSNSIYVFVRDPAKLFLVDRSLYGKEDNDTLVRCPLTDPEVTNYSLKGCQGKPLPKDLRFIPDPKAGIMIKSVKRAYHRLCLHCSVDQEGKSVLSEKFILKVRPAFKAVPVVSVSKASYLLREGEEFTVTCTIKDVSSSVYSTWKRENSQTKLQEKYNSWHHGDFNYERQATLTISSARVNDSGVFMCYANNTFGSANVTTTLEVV
Protocol: as §1, §2, §3

[6] = target: T5, Full length human CD117, soluble (HuCD117 1-524) (human, UniProt P10721 26-524); assay: as above
T5 construct: also called full-length protein
T5 sequence (P10721 26-524): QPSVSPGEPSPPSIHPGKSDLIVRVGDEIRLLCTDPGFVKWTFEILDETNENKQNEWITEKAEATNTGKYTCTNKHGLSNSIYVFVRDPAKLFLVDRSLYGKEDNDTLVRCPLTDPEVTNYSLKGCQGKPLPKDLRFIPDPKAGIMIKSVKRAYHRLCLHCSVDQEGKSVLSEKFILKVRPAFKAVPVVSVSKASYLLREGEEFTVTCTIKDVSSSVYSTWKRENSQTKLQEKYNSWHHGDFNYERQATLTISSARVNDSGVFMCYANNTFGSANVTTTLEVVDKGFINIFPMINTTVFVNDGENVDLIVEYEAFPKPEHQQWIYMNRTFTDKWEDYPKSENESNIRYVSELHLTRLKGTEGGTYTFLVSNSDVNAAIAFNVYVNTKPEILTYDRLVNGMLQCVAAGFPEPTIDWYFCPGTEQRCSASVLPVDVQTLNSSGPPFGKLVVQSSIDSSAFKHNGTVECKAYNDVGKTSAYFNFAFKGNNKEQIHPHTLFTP
Protocol: as §1, §2, §3

[7] = target: T2, Cyno CD117, soluble (cynoCD117 1-520); assay: as above
Protocol: as §1, §2, §3

Row | EC50 of trogocytosis (ADCT; DILC18 membrane uptake by neutrophils from CD117-transfected 293 cells) [1] | Normalised uptake (B max) in %, ADCT [1] | Kd [2] | binding result [3] | Kd [5] | Kd [6] | Kd [7] | Binder | further results
1 | 0.64 nM | 95.3% | – | – | – | – | – | 4A2 IgA2 anti-CD117 antibody (Example 8) (antibody, V domains shown) VH: EVQLLESGGGLVQPGGSLRLSCAASGFTFSDYGMSWVRQAPGKGLEWVSAIGYGGGGKYYADSVKGRFTISRDNSKNTLYLQMNSLRAEDTAVYYCAKDTWWLAGLFDYWGQGTLVTVSS VL: EIVLTQSPGTLSLSPGKRATLSCRASQSVSNSYLAWYQQKPGQPPKLLIYWASTRESGVPDRFSGSGSGTDFTLTISSLQAEDVAVYYCQQYYSTPLTFGGGTKVEIKR | –
2 | – | – | 9 nM | no binding (tested: 225 nM) | – | – | – | hu3B3 IgG4 (hu3B3-hLG4) (antibody) heavy: not shown light: SYELTQPPSVSVSPGQTASITCSGDKVGAKYVFWYQQKPGQSPVLVVYQDNKRPSGIPERFSGSNSGNTATLTISGTQAMDEADYYCQAWDSSTALYVFGTGTKVTVLGQPKANPTVTLFPPSSEELQANKATLVCLISDFYPGAVTVAWKADGSPVKAGVETTKPSKQSNNKYAASSYLSLTPEQWKSHRSYSCQVTHEGSTVEKTVAPTECS | –
3 | – | – | – | – | 0.49 nM | 2.5 nM | 4.4 nM | hu3B3 IgA2 (hu3B3-hLhA2 (P221R)) (antibody) heavy: EVQLVESGGGVVQPGRSLRLSCAASGFTFSSYAMHWVRQAPGKGLEWVSVIYSGGSTYYADSVKGRFTISRDNSKNTLYLQMNSLRAEDTAVYYCARDSSGYRGDFDYWGQGTLVTVSSASPTSPKVFPLSLDSTPQDGNVVVACLVQGFFPQEPLSVTWSESGQNVTARNFPPSQDASGDLYTTSSQLTLPATQCPDGKSVTCHVKHYTNSSQDVTVPCRVPPPPPCCHPRLSLHRPALEDLLLGSEANLTCTLTGLRDASGATFTWTPSSGKSAVQGPPERDLCGCYSVSSVLPGCAQPWNHGETFTCTAAHPELKTPLTANITKSGNTFRPEVHLLPPPSEELALNELVTLTCLARGFSPKDVLVRWLQGSQELPREKYLTWASRQEPSQGTTTFAVTSILRVAAEDWKKGDTFSCMVGHEALPLAFTQKTIDRLAGKPTHVNVSVVMAEVDGTCY light: SYELTQPPSVSVSPGQTASITCSGDKVGAKYVFWYQQKPGQSPVLVVYQDNKRPSGIPERFSGSNSGNTATLTISGTQAMDEADYYCQAWDSSTALYVFGTGTKVTVLGQPKANPTVTLFPPSSEELQANKATLVCLISDFYPGAVTVAWKADGSPVKAGVETTKPSKQSNNKYAASSYLSLTPEQWKSHRSYSCQVTHEGSTVEKTVAPTECS | binding result [4]: no binding (tested: 200 nM (highest CD117 concentration))
4 | – | – | 14 nM | no binding (tested: 225 nM) | – | – | – | hu3C2 IgG4 (hu3C2-hLG4p) (antibody) heavy: not shown light: SYELTQDPAVSVALGQTVRITCQGDSLRDYYANWFQQKPGQAPLLVIFYDSDRPSGIPERFSGSNSGNTATLTISRVEAGDEADYYCQAWDSSSDHWVFGGGTKLTVLGQPKAAPSVTLFPPSSEELQANKATLVCLISDFYPGAVTVAWKADGSPVKAGVETTKPSKQSNNKYAASSYLSLTPEQWKSHRSYSCQVTHEGSTVEKTVAPTECS | –
5 | – | – | – | – | 2.44 nM | 9.3 nM | 20.9 nM | hu3C2 IgA2 (hu3C2-hLhA2 (P221R)) (antibody) heavy: EVQLAESGGDLVQPGGSLRLSCAASGFTFSSYAMSWVRQAPGKGLEWVSAISGSGGSTYYADSVKGRFTISRDNSKNTLYLQMNSLRAEDTAIYYCARDLRVYAMEAFDIWGQGTMVTVSSASPTSPKVFPLSLDSTPQDGNVVVACLVQGFFPQEPLSVTWSESGQNVTARNFPPSQDASGDLYTTSSQLTLPATQCPDGKSVTCHVKHYTNSSQDVTVPCRVPPPPPCCHPRLSLHRPALEDLLLGSEANLTCTLTGLRDASGATFTWTPSSGKSAVQGPPERDLCGCYSVSSVLPGCAQPWNHGETFTCTAAHPELKTPLTANITKSGNTFRPEVHLLPPPSEELALNELVTLTCLARGFSPKDVLVRWLQGSQELPREKYLTWASRQEPSQGTTTFAVTSILRVAAEDWKKGDTFSCMVGHEALPLAFTQKTIDRLAGKPTHVNVSVVMAEVDGTCY light: SYELTQDPAVSVALGQTVRITCQGDSLRDYYANWFQQKPGQAPLLVIFYDSDRPSGIPERFSGSNSGNTATLTISRVEAGDEADYYCQAWDSSSDHWVFGGGTKLTVLGQPKAAPSVTLFPPSSEELQANKATLVCLISDFYPGAVTVAWKADGSPVKAGVETTKPSKQSNNKYAASSYLSLTPEQWKSHRSYSCQVTHEGSTVEKTVAPTECS | binding result [4]: no binding (tested: 200 nM (highest CD117 concentration))
6 | 0.44 nM | 51.1% | – | – | – | – | – | 3B3 IgA2 anti-CD117 antibody (Example 8) (antibody, V domains shown) VH: EVQLVESGGGVVQPGRSLRLSCAASGFTFSSYAMHWVRQAPGKGLEWVSVIYSGGSTYYADSVKGRFTISRDNSKNTLYLQMNSLRAEDTAVYYCARDSSGYRGDFDYWGQGTLVTVSS VL: SYELTQPPSVSVSPGQTASITCSGDKVGAKYVFWYQQKPGQSPVLVVYQDNKRPSGIPERFSGSNSGNTATLTISGTQAMDEADYYCQAWDSSTALYVFGTGTKV | –
7 | – | 3.38% | – | – | – | – | – | 3C2 IgA2 anti-CD117 antibody (Example 8) (antibody, V domains shown) VH: EVQLAESGGDLVQPGGSLRLSCAASGFTFSSYAMSWVRQAPGKGLEWVSAISGSGGSTYYADSVKGRFTISRDNSKNTLYLQMNSLRAEDTAIYYCARDLRVYAMEAFDIWGQGTMVTVSS VL: SYELTQDPAVSVALGQTVRITCQGDSLRDYYANWFQQKPGQAPLLVIFYDSDRPSGIPERFSGSNSGNTATLTISRVEAGDEADYYCQAWDSSSDHWVFGGGTKL | –
8 | 4.51 nM | 42.7% | – | – | – | – | – | 3B2 IgA2 anti-CD117 antibody (Example 8) (antibody, V domains shown) VH: QVQLQESGPGLVKPSETLSLTCTVSGYSISSGYYWGWIRQPPGKGLEWIGSIYHSGSTYYNPSLKSRVTISVDTSKNQFSLKLSSVTAADTAVYYCARVGVRYFDWLLYGAFDIWGQGTMVTVSS VL: SYELTQPPSVSVSPGQTATITCSGDKLGETYVHWYQHQSGQSPILVVYQDFKRPSGIPERFSGSNSGNTATLTISGTQAMDEADYYCQAWDSSTAVFGGGTKL | –
9 | – | – | 49 nM | no binding (tested: 225 nM) | 19.9 nM | 38.3 nM | 43.4 nM | hu4A2 IgG4 (hu4A2-hKG4p) (antibody, Human IgG4, kappa) heavy: not shown light: IVLTQSPGTLSLSPGKRATLSCRASQSVSNSYLAWYQQKPGQPPKLLIYWASTRESGVPDRFSGSGSGTDFTLTISSLQAEDVAVYYCQQYYSTPLTFGGGTKVEIKRTVAAPSVFIFPPSDEQLKSGTASVVCLLNNFYPREAKVQWKVDNALQSGNSQESVTEQDSKDSTYSLSSTLTLSKADYEKHKVYACEVTHQGLSSPVTKSFNRGEC | –
